According to US20240383982A1 (Genmab, published 2024):

Columns and labels:
[1] = biological target: T1, mouse (Mus musculus) B7H4, full length, on HEK-293F cells (mouse, UniProt Q7TSP5 25-257); assay: flow cytometry, HEK-293F cells transiently transfected with mouse B7H4, PE anti-human IgG F(ab')2 [panel Mouse B7H4]
T1 construct: Uniprot Q7TSP5; also called mouse B7H4
T1 sequence: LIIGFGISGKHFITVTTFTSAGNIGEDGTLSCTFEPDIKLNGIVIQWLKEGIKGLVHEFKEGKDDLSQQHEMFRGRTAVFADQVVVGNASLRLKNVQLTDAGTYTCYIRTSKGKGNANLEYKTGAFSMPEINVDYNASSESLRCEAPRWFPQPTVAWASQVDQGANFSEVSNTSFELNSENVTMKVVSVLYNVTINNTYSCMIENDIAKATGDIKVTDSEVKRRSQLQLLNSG
Procedure: (§1) Cells (3×10⁴ cells/well) were incubated in polystyrene 96-well round-bottom plates (Greiner bio-one, cat. no. 650180) with serial dilutions of antibodies (ranging from 0.000458 to 30 μg/mL in 4-fold dilution steps) in 100 μL PBS/0.1% BSA/0.02% azide (staining buffer) at 4° C. for 30 min. Experiments were performed in technical duplicate. After washing twice in staining buffer, cells were incubated in 50 μL secondary antibody at 4° C. for 30 min. As a secondary antibody, R-Phycoerythrin (PE)-conjugated goat-anti-human IgG F(ab′)₂ (1:500 in FACS buffer; Jackson ImmunoResearch Laboratories, Inc., West Grove, PA, cat. no. 109-116-098), was used. Cells were washed twice in staining buffer, re-suspended in 30 μL FACS buffer containing Topro-3 (1:10,000 dilution) and analyzed on an iQue Screener (Intellicyt Corporation, USA). Binding curves were analyzed using non-linear regression (sigmoidal dose-response with variable slope) using GraphPad Prism V7.02 software (GraphPad Software, San Diego, CA, USA).

[2] = biological target: T2, human B7H4, full length, on cells (human, UniProt Q7Z7D3 25-282); assay: flow cytometry on HCC1954 tumor cells [HCC1954 right panel]
T2 construct: Uniprot Q7Z7D3; Used for transfected HEK cells and for the B7H4-expressing human tumor cell lines (endogenous B7H4); also called VTCN1
T2 sequence: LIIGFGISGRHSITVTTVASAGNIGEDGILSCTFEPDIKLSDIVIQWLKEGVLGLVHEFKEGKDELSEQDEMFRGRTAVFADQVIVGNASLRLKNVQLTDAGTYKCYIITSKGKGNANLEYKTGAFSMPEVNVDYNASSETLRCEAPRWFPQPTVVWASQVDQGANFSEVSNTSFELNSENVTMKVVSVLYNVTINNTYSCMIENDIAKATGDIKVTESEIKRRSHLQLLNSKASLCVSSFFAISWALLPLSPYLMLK
Procedure: as §1
Binding was analyzed by flow cytometry as described above.

[3] = biological target: T2, human B7H4, full length, on cells; assay: cell-based or functional assay
[4] = biological target: T3, human recombinant His tagged B7H4 protein (Sino Biological cat. no. 10738-H08H) (human, UniProt Q7Z7D3 29-258); assay: BLI (Octet HTX); antibody on anti-human IgG Fc capture sensor, human B7H4 ECD-His in solution; 2nd experiment (average of n = 3)
T3 construct: Bought protein; theoretical mass 26.8 kDa; also called human B7H4; human B7H4 extracellular domain
T3 sequence: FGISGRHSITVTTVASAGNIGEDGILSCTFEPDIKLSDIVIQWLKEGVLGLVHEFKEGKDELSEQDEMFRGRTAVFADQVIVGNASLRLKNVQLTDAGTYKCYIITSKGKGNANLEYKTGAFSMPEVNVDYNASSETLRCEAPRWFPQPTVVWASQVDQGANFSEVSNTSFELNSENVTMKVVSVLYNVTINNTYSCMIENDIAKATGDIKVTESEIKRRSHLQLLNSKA
Procedure: (§2) Target binding affinity of B7H4 antibodies was determined by label-free biolayer interferometry (BLI) on an Octet HTX instrument (FortéBio). Experiments were carried out while shaking at 1,000 RPM at 30° C. […] Anti-Human IgG Fc Capture (AHC) biosensors (FortéBio, cat. no. 18-5060) were pre-conditioned by exposure to 10 mM glycine (Sigma-Aldrich, cat. no. 15527) buffer pH 1.7 for 5 s, followed by neutralization in Sample Diluent (FortéBio, cat. no. 18-1048) for 5 s; both steps were repeated 2 times. Next, AHC sensors were loaded with antibody (1 μg/mL in Sample diluent) for 600 s. […] The theoretical molecular mass of human B7H4 and mouse B7H4 (as ECD-His tagged molecules) based on their amino acid sequences (26.8 kDa and 26.6 kDa respectively) were used for calculations. For each antibody a reference sensor was used, which was incubated with Sample Diluent instead of antigen. AHC sensors were regenerated by exposure to 10 mM glycine buffer pH 1.7 for 5 s, followed by neutralization in Sample Diluent for 5 s; both steps were repeated twice. Subsequently sensors were loaded again with antibody for the next cycle of kinetics measurements.
(§3) Data were acquired using Data Acquisition Software v9.0.0.49d (FortéBio) and analyzed with Data Analysis Software v9.0.0.12 (FortéBio). Data traces were corrected per antibody by subtraction of the reference sensor. The Y-axis was aligned to the last 10 s of the baseline, Interstep Correction alignment to dissociation and Savitzky-Golay filtering were applied. Data traces with a response<0.05 nm were excluded from analysis. The data was fitted with the 1:1 Global Full fit model using a window of interest for the association and dissociation times set at 300 s and 200 s respectively.

[5] = biological target: T3, human recombinant His tagged B7H4 …; assay: BLI (Octet HTX); antibody on anti-human IgG Fc capture sensor, human B7H4 ECD-His in solution; 1st experiment
Procedure: as §2, §3

B1: bsIgG1-huCD3-H101G-FEALxB7H4-C1-N52S-FEAR (bispecific antibody)
heavy 1: not shown
light 1: not shown
heavy 2: QVQLQQWGAGLLKPSETLSLTCAVYGGSFSGYYWSWIRQPPGKGLEWIGEISHSGSTNYNPSLKSRVTISIDTSKNQFSLKLTSVTAADTAVFYCARGLFNWNFDSWGQGTLVTVSSASTKGPSVFPLAPSSKSTSGGTAALGCLVKDYFPEPVTVSWNSGALTSGVHTFPAVLQSSGLYSLSSVVTVPSSSLGTQTYICNVNHKPSNTKVDKRVEPKSCDKTHTCPPCPAPEFEGGPSVFLFPPKPKDTLMISRTPEVTCVVVAVSHEDPEVKFNWYVDGVEVHNAKTKPREEQYNSTYRVVSVLTVLHQDWLNGKEYKCKVSNKALPAPIEKTISKAKGQPREPQVYTLPPSREEMTKNQVSLTCLVKGFYPSDIAVEWESNGQPENNYKTTPPVLDSDGSFFLYSRLTVDKSRWQQGNVFSCSVMHEALHNHYTQKSLSLSPGK
light 2: DIQMTQSPSSLSASVGDRVTITCRASQGIRNDLGWYQQKPGKAPKRLIYGASSLQSGVPSRFSGSGSGTEFTLTISSLQPEDFATYYCLQHNSYPRTFGQGTTVEIKRTVAAPSVFIFPPSDEQLKSGTASVVCLLNNFYPREAKVQWKVDNALQSGNSQESVTEQDSKDSTYSLSSTLTLSKADYEKHKVYACEVTHQGLSSPVTKSFNRGEC
notes: also called bslgG1-huCD3-H101G-FEALxB7H4-C1-N52S-FEAR; BslgG1-huCD3-H101G-FEALxB7H4-C1-N52S-FEAR
binding result [1]: binds
EC50 (read off the curve) [2]: ~1 µg/mL
IC50 of T cell-mediated cytotoxicity, HCC1954 cells, highest of 4 donors [3]: 0.22 µg/mL
IC50 of T cell-mediated cytotoxicity, HCC1954 cells, lowest of 4 donors [3]: 0.06 µg/mL
IC50 of T cell-mediated cytotoxicity, MCF7 cells, highest of 4 donors [3]: 1.29 µg/mL
IC50 of T cell-mediated cytotoxicity, MCF7 cells, lowest of 4 donors [3]: 0.55 µg/mL
IC50 of T cell-mediated cytotoxicity, MDA-MB-468 cells, highest of 4 donors [3]: 0.16 µg/mL
IC50 of T cell-mediated cytotoxicity, MDA-MB-468 cells, lowest of 4 donors [3]: 0.08 µg/mL
IC50 of T cell-mediated cytotoxicity, NCI-H16650 cells, highest of 4 donors [3]: 5.07 µg/mL
IC50 of T cell-mediated cytotoxicity, NCI-H16650 cells, lowest of 4 donors [3]: 1.67 µg/mL
IC50 of T cell-mediated cytotoxicity, OVCAR3 cells, highest of 4 donors [3]: 1.63 µg/mL
IC50 of T cell-mediated cytotoxicity, OVCAR3 cells, lowest of 4 donors [3]: 0.09 µg/mL
IC50 of T cell-mediated cytotoxicity, SK-BR3 cells, highest of 4 donors [3]: 0.22 µg/mL
IC50 of T cell-mediated cytotoxicity, SK-BR3 cells, lowest of 4 donors [3]: 0.09 µg/mL

B2: IgG1-B7H4-C1-N52S-FEAR (antibody, V domains shown)
VH: QVQLQQWGAGLLKPSETLSLTCAVYGGSFSGYYWSWIRQPPGKGLEWIGEISHSGSTNYNPSLKSRVTISIDTSKNQFSLKLTSVTAADTAVFYCARGLFNWNFDSWGQGTLVTVSS
VL: DIQMTQSPSSLSASVGDRVTITCRASQGIRNDLGWYQQKPGKAPKRLIYGASSLQSGVPSRFSGSGSGTEFTLTISSLQPEDFATYYCLQHNSYPRTFGQGTTVEIKR
notes: Full length human IgG1 with L234F, L235E, D265A, K409R (FEAR) heavy chain constant region and kappa light chain; bivalent, monospecific; also called IgG1-B7H4-C1-052S-FEAR
EC50 (read off the curve) [1]: ~0.3 µg/mL
Kd [4]: 57 nM
koff [4]: 0.0047 s⁻¹
kon [4]: 84000 M⁻¹ s⁻¹
Kd [5]: 57 nM
koff [5]: 0.0054 s⁻¹
kon [5]: 94000 M⁻¹ s⁻¹
